For data set [1], the system named is CC(C)C[C@H](NC(=O)[C@H](CCCNC(=N)N)NC(=O)[C@H](CCCNC(=N)N)NC(=O)[C@@H](N)CCCNC(=N)N)C(=O)N[C@@H](CO)C(=O)N[C@@H](Cc1ccccc1)C(=O)N[C@@H](C)C(=O)N[C@@H](CCC(=O)O)C(=O)N1CCC[C@H]1C(=O)NCC(=O)O. The data set is described as follows: purified protein, by the assay type. Conditions: other: PKA; Standard Substrate = LRRASLG; 30.0 °C.
In data set [2] the test system is CC(C)C[C@H](NC(=O)[C@@H](NC(=O)[C@H](CCCNC(=N)N)NC(=O)[C@H](C)NC(=O)[C@@H](N)CCCNC(=N)N)[C@@H](C)O)C(=O)N[C@@H](CO)C(=O)N[C@@H](Cc1ccccc1)C(=O)N[C@@H](C)C(=O)N[C@@H](CCC(=O)O)C(=O)N1CCC[C@H]1C(=O)NCC(=O)O. The data set is described as follows: purified protein, by the assay type. As to conditions: other: CaMKII; Standard Substrate = MHRQETVDCLK; 30.0 °C.
Experimental: All protein kinase assays were linear with respect to time. […] The assays with the three generic peptides introduced in this example were carried out in the same buffers as follow. Unlabelled or biotinylated substrate peptides were assayed for 10 min at 30° C. in 50 μl incubations, in the presence of 0.1 mM [y^32P]ATP or unlabelled ATP. Radioactive assays were terminated by spotting 40 μl of each incubation on to phosphocellulose paper followed by immersion in 75 mM phosphoric acid. All papers were subsequently washed a further three times in phosphoric acid, once in acetone, then dried and counted for radioactivity. Non-radioactive assays were terminated by the addition of EDTA to a final concentration of 20 mM, then diluted with an equal volume of phosphate-buffered saline (PBS), containing 0.1% Tween 20 and the biotinylated peptides captured by incubation for 60 min on pre-washed, 96 well Streptavidin coated plates (Equilon A/S, Vedbaek, Denmark). […] The plates were then washed six times (five min per wash) in PBS, 0.1% Tween 20 and binding of the phospho-specific antibody detected by incubating the plates with peroxidase-conjugated anti-sheep antibodies (Pierce). […] Signals were quantitated on LAS-1000IR software (FujiFilm).
Data set [3] deals with T1, CC(C)C[C@H](NC(=O)[C@H](CCCCN)NC(=O)[C@@H](N)CCCCN)C(=O)N[C@@H](CC(N)=O)C(=O)N[C@@H](CCCNC(=N)N)C(=O)N[C@H](C(=O)N[C@@H](CC(C)C)C(=O)N[C@@H](CO)C(=O)N[C@@H](Cc1ccccc1)C(=O)N[C@@H](C)C(=O)N[C@@H](CCC(=O)O)C(=O)N1CCC[C@H]1C(=O)NCC(=O)O)[C@@H](C)O.
T1 construct: made in house; host or cells: Sf21 insect cells
The data set can be described thus: Kinetic parameters for peptide phosphorylation, radioactive filter-binding assay. The data set is classed as biochemical, human. As to conditions: other: PKBα; Standard Substrate = GRPRTSSFAEG; 30.0 °C. From the text: Apart from the AMP-activated protein kinase (AMPK, a gift from Drs S. Hawley and D. G. Hardie), cGMP-dependent protein kinase (PKG, a generous gift from Drs Susan Lohmann and Ulrich Walter, University of Wurzburg, Germany) and the catalytic subunit of cyclic AMP-dependent protein kinase (PKA, a gift from Dr C. Smythe), which were isolated from rat liver, bovine lung and bovine heart, respectively, all other protein kinases were expressed as either GST-fusion or His-tagged proteins (by a person, a person, Dr A. Paterson or a person, in this Division). The expressed proteins all corresponded to the human sequences apart from the rat Rho-dependent protein kinase (ROCK-II) and rat mitogen-activated protein kinase (MAPK) activated kinase-1a (MAPKAP-K1a, also called RSK). […]
All protein kinase assays were linear with respect to time. […] All papers were subsequently washed a further three times in phosphoric acid, once in acetone, then dried and counted for radioactivity. […] The plates were then washed six times (five min per wash) in PBS, 0.1% Tween 20 and binding of the phospho-specific antibody detected by incubating the plates with peroxidase-conjugated anti-sheep antibodies (Pierce). […] Signals were quantitated on LAS-1000IR software (FujiFilm). […]

Drawing on patent publication US7727950B2, “Methods and reagents for assaying protein kinase activity” (The University of Dundee, priority 2002, dated 2010), this text covers Km for three substances.

Usually Km stands for the concentration of substrate that gives half-maximal velocity. For the substance PKA (Bos taurus), in data set [1], the Km was 30 µM.

On to CaMKII (Homo sapiens), for which the Km in data set [2] turned out to be 300 µM. As to PKBα (Homo sapiens), the Km in data set [3] came to 2 µM.
